Measurements reported in IntAct's records for PubMed 25117710.

B1: Protein C-ets-2 (Homo sapiens), P15036 (parent)
chain: MNDFGIKNMDQVAPVANSYRGTLKRQPAFDTFDGSLFAVFPSLNEEQTLQEVPTGLDSISHDSANCELPLLTPCSKAVMSQALKATFSGFKKEQRRLGIPKNPWLWSEQQVCQWLLWATNEFSLVNVNLQRFGMNGQMLCNLGKERFLELAPDFVGDILWEHLEQMIKENQEKTEDQYEENSHLTSVPHWINSNTLGFGTEQAPYGMQTQNYPKGGLLDSMCPASTPSVLSSEQEFQMFPKSRLSSVSVTYCSVSQDFPGSNLNLLTNNSGTPKDHDSPENGADSFESSDSLLQSWNSQSSLLDVQRVPSFESFEDDCSQSLCLNKPTMSFKDYIQERSDPVEQGKPVIPAAVLAGFTGSGPIQLWQFLLELLSDKSCQSFISWTGDGWEFKLADPDEVARRWGKRKNKPKMNYEKLSRGLRYYYDKNIIHKTSGKRYVYRFVCDLQNLLGFTPEELHAILGVQPDTED
B2: Protein C-ets-1 (Homo sapiens), P14921-1 (parent)
chain: MKAAVDLKPTLTIIKTEKVDLELFPSPDMECADVPLLTPSSKEMMSQALKATFSGFTKEQQRLGIPKDPRQWTETHVRDWVMWAVNEFSLKGVDFQKFCMNGAALCALGKDCFLELAPDFVGDILWEHLEILQKEDVKPYQVNGVNPAYPESRYTSDYFISYGIEHAQCVPPSEFSEPSFITESYQTLHPISSEELLSLKYENDYPSVILRDPLQTDTLQNDYFAIKQEVVTPDNMCMGRTSRGKLGGQDSFESIESYDSCDRLTQSWSSQSSFNSLQRVPSYDSFDSEDYPAALPNHKPKGTFKDYVRDRADLNKDKPVIPAAALAGYTGSGPIQLWQFLLELLTDKSCQSFISWTGDGWEFKLSDPDEVARRWGKRKNKPKMNYEKLSRGLRYYYDKNIIHKTAGKRYVYRFVCDLQSLLGYTPEELHAMLDVKPDADE

Variants of: B1
Settings: with cop1_human COP1, Q8NHY2
Target sequence in this assay (Q8NHY2 whole entry): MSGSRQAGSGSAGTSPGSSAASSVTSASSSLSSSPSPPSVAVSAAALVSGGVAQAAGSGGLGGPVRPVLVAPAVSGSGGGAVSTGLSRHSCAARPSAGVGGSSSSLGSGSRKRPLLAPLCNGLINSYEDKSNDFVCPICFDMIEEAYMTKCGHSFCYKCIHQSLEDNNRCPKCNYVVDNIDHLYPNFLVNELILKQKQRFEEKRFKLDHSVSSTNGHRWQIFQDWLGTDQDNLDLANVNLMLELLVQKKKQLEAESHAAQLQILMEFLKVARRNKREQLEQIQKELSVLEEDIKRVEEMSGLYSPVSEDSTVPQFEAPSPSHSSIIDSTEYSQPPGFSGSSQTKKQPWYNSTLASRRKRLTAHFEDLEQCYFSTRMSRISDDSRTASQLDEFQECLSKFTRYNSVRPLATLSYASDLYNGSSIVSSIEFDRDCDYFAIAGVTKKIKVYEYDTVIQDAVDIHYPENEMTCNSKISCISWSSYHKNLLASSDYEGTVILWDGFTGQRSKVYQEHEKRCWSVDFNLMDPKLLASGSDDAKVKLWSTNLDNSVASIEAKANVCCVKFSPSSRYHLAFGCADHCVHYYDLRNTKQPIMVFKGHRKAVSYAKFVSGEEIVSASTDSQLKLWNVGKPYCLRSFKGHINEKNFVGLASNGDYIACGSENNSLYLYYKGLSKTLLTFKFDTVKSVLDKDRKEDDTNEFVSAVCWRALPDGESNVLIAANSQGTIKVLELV

| effect of a mutation on the interaction | Variant |
| --- | --- |
| decreasing interaction strength | MNDFGIKNMDQVAPVANSYRGTLKRQPAFDTFDGSLFAVFPSLNEEQTLQEAATGLDSISHDSANCELPLLTPCSKAVMSQALKATFSGFKKEQRRLGIPKNPWLWSEQQVCQWLLWATNEFSLVNVNLQRFGMNGQMLCNLGKERFLELAPDFVGDILWEHLEQMIKENQEKTEDQYEENSHLTSVPHWINSNTLGFGTEQAPYGMQTQNYPKGGLLDSMCPASTPSVLSSEQEFQMFPKSRLSSVSVTYCSVSQDFPGSNLNLLTNNSGTPKDHDSPENGADSFESSDSLLQSWNSQSSLLDVQRVPSFESFEDDCSQSLCLNKPTMSFKDYIQERSDPVEQGKPVIPAAVLAGFTGSGPIQLWQFLLELLSDKSCQSFISWTGDGWEFKLADPDEVARRWGKRKNKPKMNYEKLSRGLRYYYDKNIIHKTSGKRYVYRFVCDLQNLLGFTPEELHAILGVQPDTED [V52A;P53A] |
| decreasing interaction strength | MNDFGIKNMDQVAPVANSYRGTLKRQPAFDTFDGSLFAVFPSLNEEQTLQEVPTGLDSISHDSANCELPLLTPCSKAVMSQALKATFSGFKKEQRRLGIPKNPWLWSEQQVCQWLLWATNEFSLVNVNLQRFGMNGQMLCNLGKERFLELAPDFVGDILWEHLEQMIKENQEKTEDQYEENSHLTSVPHWINSNTLGFGTEQAPYGMQTQNYPKGGLLDSMCPASTPSVLSSEQEFQMFPKSRLSSVSVTYCSVSQDFPGSNLNLLTNNSGTPKDHDSPENGADSFESSDSLLQSWNSQSSLLDVQRAASFESFEDDCSQSLCLNKPTMSFKDYIQERSDPVEQGKPVIPAAVLAGFTGSGPIQLWQFLLELLSDKSCQSFISWTGDGWEFKLADPDEVARRWGKRKNKPKMNYEKLSRGLRYYYDKNIIHKTSGKRYVYRFVCDLQNLLGFTPEELHAILGVQPDTED [V308A;P309A] |
| disrupting interaction strength | MNDFGIKNMDQVAPVANSYRGTLKRQPAFDTFDGSLFAVFPSLNEEQTLQEAATGLDSISHDSANCELPLLTPCSKAVMSQALKATFSGFKKEQRRLGIPKNPWLWSEQQVCQWLLWATNEFSLVNVNLQRFGMNGQMLCNLGKERFLELAPDFVGDILWEHLEQMIKENQEKTEDQYEENSHLTSVPHWINSNTLGFGTEQAPYGMQTQNYPKGGLLDSMCPASTPSVLSSEQEFQMFPKSRLSSVSVTYCSVSQDFPGSNLNLLTNNSGTPKDHDSPENGADSFESSDSLLQSWNSQSSLLDVQRAASFESFEDDCSQSLCLNKPTMSFKDYIQERSDPVEQGKPVIPAAVLAGFTGSGPIQLWQFLLELLSDKSCQSFISWTGDGWEFKLADPDEVARRWGKRKNKPKMNYEKLSRGLRYYYDKNIIHKTSGKRYVYRFVCDLQNLLGFTPEELHAILGVQPDTED [V52A;P53A;V308A;P309A] |

Variants of: B2
Settings: with cop1_human COP1, Q8NHY2
Target sequence in this assay (Q8NHY2 whole entry): as the sequence (Q8NHY2 whole entry) above

| effect of a mutation on the interaction | Variant |
| --- | --- |
| increasing interaction strength | MKAAVDLKPTLTIIKTEKVDLELFPSPDMECADVPLLTPSSKEMMSQALKATFSGFTKEQQRLGIPKDPRQWTETHVRDWVMWAVNEFSLKGVDFQKFCMNGAALCALGKDCFLELAPDFVGDILWEHLEILQKEDVKPYQVNGVNPAYPESRYTSDYFISYGIEHAQCVPPSEFSEPSFITESYQTLHPISSEELLSLKYENDYPSVILRDPLQTDTLQNDYFAIKQEVVTPDNMCMGRTSRGKLGGQDSFESIESYDSCDRLTQSWSSQSSFNSLQRVPSFDSFDSEDYPAALPNHKPKGTFKDYVRDRADLNKDKPVIPAAALAGYTGSGPIQLWQFLLELLTDKSCQSFISWTGDGWEFKLSDPDEVARRWGKRKNKPKMNYEKLSRGLRYYYDKNIIHKTAGKRYVYRFVCDLQSLLGYTPEELHAMLDVKPDADE [Y283F] |
| increasing interaction strength | MKAAVDLKPTLTIIKTEKVDLELFPSPDMECADVPLLTPSSKEMMSQALKATFSGFTKEQQRLGIPKDPRQWTETHVRDWVMWAVNEFSLKGVDFQKFCMNGAALCALGKDCFLELAPDFVGDILWEHLEILQKEDVKPYQVNGVNPAYPESRYTSDYFISYGIEHAQCVPPSEFSEPSFITESYQTLHPISSEELLSLKYENDYPSVILRDPLQTDTLQNDYFAIKQEVVTPDNMCMGRTSRGKLGGQDSFESIESYDSCDRLTQSWSSQSSFNDLQRVPDFDSFDSEDYPAALPNHKPKGTFKDYVRDRADLNKDKPVIPAAALAGYTGSGPIQLWQFLLELLTDKSCQSFISWTGDGWEFKLSDPDEVARRWGKRKNKPKMNYEKLSRGLRYYYDKNIIHKTAGKRYVYRFVCDLQSLLGYTPEELHAMLDVKPDADE [S276D;S282D;Y283F] |
| increasing interaction strength | MKAAVDLKPTLTIIKTEKVDLELFPSPDMECADVPLLTPSSKEMMSQALKATFSGFTKEQQRLGIPKDPRQWTETHVRDWVMWAVNEFSLKGVDFQKFCMNGAALCALGKDCFLELAPDFVGDILWEHLEILQKEDVKPYQVNGVNPAYPESRYTSDYFISYGIEHAQCVPPSEFSEPSFITESYQTLHPISSEELLSLKYENDYPSVILRDPLQTDTLQNDYFAIKQEVVTPDNMCMGRTSRGKLGGQDSFESIESYDSCDRLTQSWSSQSSFNALQRVPDFDSFDSEDYPAALPNHKPKGTFKDYVRDRADLNKDKPVIPAAALAGYTGSGPIQLWQFLLELLTDKSCQSFISWTGDGWEFKLSDPDEVARRWGKRKNKPKMNYEKLSRGLRYYYDKNIIHKTAGKRYVYRFVCDLQSLLGYTPEELHAMLDVKPDADE [S276A;S282D;Y283F] |
| increasing interaction strength | MKAAVDLKPTLTIIKTEKVDLELFPSPDMECADVPLLTPSSKEMMSQALKATFSGFTKEQQRLGIPKDPRQWTETHVRDWVMWAVNEFSLKGVDFQKFCMNGAALCALGKDCFLELAPDFVGDILWEHLEILQKEDVKPYQVNGVNPAYPESRYTSDYFISYGIEHAQCVPPSEFSEPSFITESYQTLHPISSEELLSLKYENDYPSVILRDPLQTDTLQNDYFAIKQEVVTPDNMCMGRTSRGKLGGQDSFESIESYDSCDRLTQSWSSQSSFNSLQRVPAFDSFDSEDYPAALPNHKPKGTFKDYVRDRADLNKDKPVIPAAALAGYTGSGPIQLWQFLLELLTDKSCQSFISWTGDGWEFKLSDPDEVARRWGKRKNKPKMNYEKLSRGLRYYYDKNIIHKTAGKRYVYRFVCDLQSLLGYTPEELHAMLDVKPDADE [S282A;Y283F] |
| increasing interaction strength | MKAAVDLKPTLTIIKTEKVDLELFPSPDMECADVPLLTPSSKEMMSQALKATFSGFTKEQQRLGIPKDPRQWTETHVRDWVMWAVNEFSLKGVDFQKFCMNGAALCALGKDCFLELAPDFVGDILWEHLEILQKEDVKPYQVNGVNPAYPESRYTSDYFISYGIEHAQCVPPSEFSEPSFITESYQTLHPISSEELLSLKYENDYPSVILRDPLQTDTLQNDYFAIKQEVVTPDNMCMGRTSRGKLGGQDSFESIESYDSCDRLTQSWSSQSSFNDLQRVPSFDSFDSEDYPAALPNHKPKGTFKDYVRDRADLNKDKPVIPAAALAGYTGSGPIQLWQFLLELLTDKSCQSFISWTGDGWEFKLSDPDEVARRWGKRKNKPKMNYEKLSRGLRYYYDKNIIHKTAGKRYVYRFVCDLQSLLGYTPEELHAMLDVKPDADE [S276D;Y283F] |
| increasing interaction strength | MKAAVDLKPTLTIIKTEKVDLELFPSPDMECADVPLLTPSSKEMMSQALKATFSGFTKEQQRLGIPKDPRQWTETHVRDWVMWAVNEFSLKGVDFQKFCMNGAALCALGKDCFLELAPDFVGDILWEHLEILQKEDVKPYQVNGVNPAYPESRYTSDYFISYGIEHAQCVPPSEFSEPSFITESYQTLHPISSEELLSLKYENDYPSVILRDPLQTDTLQNDYFAIKQEVVTPDNMCMGRTSRGKLGGQDSFESIESYDSCDRLTQSWSSQSSFNSLQRVPDFDSFDSEDYPAALPNHKPKGTFKDYVRDRADLNKDKPVIPAAALAGYTGSGPIQLWQFLLELLTDKSCQSFISWTGDGWEFKLSDPDEVARRWGKRKNKPKMNYEKLSRGLRYYYDKNIIHKTAGKRYVYRFVCDLQSLLGYTPEELHAMLDVKPDADE [S282D;Y283F] |

Variants of: B2
Settings: with cop1_human COP1, Q8NHY2
Remark: another data set of the same source
Target sequence in this assay (Q8NHY2 whole entry): as the sequence (Q8NHY2 whole entry) above

| effect of a mutation on the interaction | Variant |
| --- | --- |
| disrupting interaction strength | MKAAVDLKPTLTIIKTEKVDLELFPSPDMECADVPLLTPSSKEMMSQALKATFSGFTKEQQRLGIPKDPRQWTETHVRDWVMWAVNEFSLKGVDFQKFCMNGAALCALGKDCFLELAPDFVGDILWEHLEILQKEDVKPYQVNGVNPAYPESRYTSDYFISYGIEHAQCVPPSEFSEPSFITESYQTLHPISSEELLSLKYENDYPSVILRDPLQTDTLQNDYFAIKQEVVTPDNMCMGRTSRGKLGGQDSFESIESYDSCDRLTQSWSSQSSFNSLQRAASYDSFDSEDYPAALPNHKPKGTFKDYVRDRADLNKDKPVIPAAALAGYTGSGPIQLWQFLLELLTDKSCQSFISWTGDGWEFKLSDPDEVARRWGKRKNKPKMNYEKLSRGLRYYYDKNIIHKTAGKRYVYRFVCDLQSLLGYTPEELHAMLDVKPDADE [V280A;P281A] |
